{"source": "paper PMC8194188", "about": "“Kinetic modeling of phosphorylase-catalyzed iterative β-1,4-glycosylation for degree of polymerization-controlled synthesis of soluble cello-oligosaccharides” (Biotechnology for Biofuels, 2021)", "substrate": "O=P(O)(O)O[C@H]1O[C@H](CO)[C@@H](O)[C@H](O)[C@H]1O", "assay": "initial rates from phosphate release, Michaelis-Menten fit", "type": "biochemical, [Clostridium] cellulosi", "settings": "100 mM cellobiose (saturating), 50 mM MES pH 7.0, 45 °C, synthesis direction", "data": [{"protein": "CcCdP (cellodextrin phosphorylase from Clostridium cellulosi) ([Clostridium] cellulosi) (protein, N-terminally His-tagged, recombinant, purified) MITKVTPRSCKLTPFEILKQKFGSIIAMSGCADAIYSDSSCKNVIGITGLPIKAPVIQVLLENSKLAAFLNEYVQNKSVCLALEGMRYCLVFEDGQKVKLPQELDDIIQSTVSDVKNWAGTLTENGEHVIDLKKPSPGPHFYVNLLIGNRLGFNRTLQTTPKSVVDRFGRGSFRSHAATQVLATRYDMRQEENGFPANRQFYLYENGKQIFYSGSVDDDNILEAKCIHSCNRTVIKYKTACKLEITRTIFLCPQKKGLPLATEIQIINIKNNSERKRNLSITYTGMFGTAATHAIFEDVTYTNVIMQSAALYNDNGEFIGITPDYYRKKYNEDTRFVTMFVRKDGKRIFPKSFCTDYNDFVGNGTLEHPAGGEHLNNKLNRKGPGFFALGTPFTIMPGQDIEIDTFTGMSSSKDNPNYDDTTMPKELEALLRYFEASDSVQSALREVIDFQEKYCKYIEFKTEDKMFNAGFNKNLAFQILYQTFMSRSFCQTQKGYREIGFREIQDLYASMYYFINLGYQDFVKNLLFEWTSNVYKMGYANHNFYWVGKQPGLYSDDSLWLLQAYYRYIIYTKDTSILNEEVPVADGNNEKRAVRDTLKAIIQYSAFISVGNHGLPLLDLADWNDCLKIDNDYVDGAQKEKLYYKQLKETGGKYGDRFMSDYSESVMNAFLLKVAVDDLAEIAELDKDAELEQSMRKISSALSEKIQKYAWKGNFFARVLLNRYKDGSFTYIGAKGDKLSADPNIDGTYFLNSFSWAILSGVATDEQIGIMVDTLKKYMLTPYGIRLTTPADLNKLANDTATDHYFYGDRENGAVFKHASMMATAALAKAAKSVKDKALAKEMARLAYYMIDLVLPYKNLEDPFKLAGNPRICTQYINADSGENIGPLLSGTATWLNLTITSLAGIEYVKDGIMFSPVLREDETRLEYSLKAPGCSYNITITKPRGFARLIDSAYDLRIDGKKTDNCIIPMFTDGKEHSVTLEFK", "values": [{"measurement": "Km", "value": "470 ± 240", "unit": "µM"}]}]}
